± gives the uncertainty stated by the source.

This series in a line: amyloid nucleation score (Sup35N fusion, yeast selection) (log enrichment); library NNK2; higher = more nucleation; inactive = no reads after selection. An outline of the steps:
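Random libraries were run with three technical output replicates. In each, psi-negative yeast expressing Sup35N fused to peptides of 20 random codons were induced 24 hours with 100 μM copper sulfate and grown 7 days at 30°C on medium lacking adenine and uracil, and input and output plasmid inserts were Illumina-sequenced. The nucleation score is the DiMSum log enrichment of output over input reads, centred on the mode score of non-aggregating sequences, and sequences under 100 input reads were excluded.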
On to AVLLPNWSAYSGKNTSYVPV, for which the amyloid nucleation score came to 2.13 ± 0.1.
As for AVPNLGSVPYVVDLMI, the figure is 0.907 ± 0.29; as for AVRTLDNMGLYAWISAKVCR, -0.184 ± 0.79; as for AVSTMGIVSIVF, “inactive”.
Take AVWAEEGMPLMLGACRRTWG: the amyloid nucleation score was 1.25 ± 0.26.
In the case of AWDDL, the amyloid nucleation score stood at 0.154 ± 0.45.
Next, AWRGFTSIGAYYAQFGLGVA: 0.431 ± 0.36; AWVWFS: -0.845 ± 1.1.
In turn, AYCRGFYYIIALVSSPEQKR returned an amyloid nucleation score of 0.175 ± 0.34.
AYDIHTIREMFRSSSRLYGW had an amyloid nucleation score of 5.854 ± 0.033.
Next, AYFRLWVRAWTLASGE: 0.938 ± 0.2.
As for AYHTMGGWLRVAG, the figure is 0.005 ± 1.
As for AYMSYRAGMDRLQCDVS, the figure is -0.947 ± 1.1.
As to AYMVASMESMDACRVLRLPS, the amyloid nucleation score came to 0.87 ± 0.21.
Next, AYMVEWEENHSESSVA: -0.383 ± 1.
Next, AYYALCL: -0.92 ± 1.1; CAISM: 4.271 ± 0.039.
Next, CAPVCFFRGSLRCRSRLTWR: -0.221 ± 1.1.
CAPYTVLGYGLGTQFHAGEN: the amyloid nucleation score turned out to be 1.8 ± 0.1.
As for CARMGASLWI, the figure is 0.214 ± 0.65; as for CASWLVCMFRGMFRVLNTSG, 2.82 ± 0.17.
As for CAVVRGLTVKAVL, the figure is -0.64 ± 0.76; as for CCFRKWSSTAHRRFPCWREL, 0.255 ± 0.54; as for CCIFWYCRADAINNCLARFD, 7.154 ± 0.041.
Next, CCKITDMAPNPVETWKYSKR: 0.786 ± 0.27; CCLTPYAIICLLARLNHTKV: -0.273 ± 0.61.
In the case of CCNIGHNVMNY, the amyloid nucleation score is 2.9 ± 0.11.
As for CCYQVSYCIVSVIDSVEYGP, the figure is 6.991 ± 0.033.
CCYVHWILGAGDREGRLWRQ returned an amyloid nucleation score of 3.86 ± 0.13.
Next, CDGSGCTDFVVCLHK: -0.195 ± 0.31; CDSRCRYLAEYRFI: 0.151 ± 0.27.
As for CDTLTRRFVRCNVWFQCKR, the figure is 3.96 ± 0.056; as for CDVLRY, -0.825 ± 0.48.
For CECVFFVQGVLRVGVLYDKF, the amyloid nucleation score result was “inactive”.
Next, CEEAVSIGLKGYEHVEKSAP: -0.313 ± 0.76; CEWHYRRGFMMIGVMWNAVF: 0.427 ± 0.36.
Next, CFCPMLLLYIVRP: 7.483 ± 0.023; CFKFRYRLGGW: 4.93 ± 0.05.
As for CFLCMQSLS, the figure is 1.34 ± 0.33; as for CFVIGLSMNLGHAGHKVWMT, 4.75 ± 0.086; as for CFVRTVFL, “inactive”.
Regarding CGELY, the amyloid nucleation score came out at 0.506 ± 0.66.
Next, CGFHYFFRSTGYMAVAIIIR: “inactive”; CGGAGRMLWGLADSNAALEA: 0.163 ± 0.63; CGMKTRQYCTMSRYVGRYVR: 0.231 ± 0.24.
CGRTDNWGNDRNASRRHGGL had an amyloid nucleation score of 0.694 ± 0.24.
As for CGTGARVCYCYGFKLSSARG, the figure is 0.965 ± 0.6.
As for CGYLSNRSDNRCDLLYACFR, the figure is 0.571 ± 0.36.
Next, CHGSCSYETSVVCYMWSGKG: 3.21 ± 0.14.
CHHTAYPMANFWQWLKGAMS gave an amyloid nucleation score of 0.069 ± 0.35.
Next, CHLKFNANVKWLGSLGKLEY: 4.74 ± 0.069; CHMDFERFRWLKFSLFCSLH: -0.562 ± 1.1.
Next, CHTTMPGIVCKLGTYARGEG: 6.638 ± 0.066; CIMRGREQDFWQSDY: 0.116 ± 0.23.
Turning to CIQIAIYGWFTDTTIRG, the amyloid nucleation score is 6.48 ± 0.03.
Next, CITLRYYMDVRLSLHMKRTW: 0.988 ± 0.53; CIVAFEFLYWCRRIAFNPGG: -0.475 ± 0.31.
As for CKCSAAIDVRDYVS, the figure is -0.02 ± 1.1.
Next, CKHDCETWWCSY: 3.48 ± 0.058; CKLPDVTIMDYLLPFM: -0.333 ± 0.41.
For CKSEYIWYPKFAMGSFDPSQ, the amyloid nucleation score result was “inactive”.
On to CLDPLAMSN, for which the amyloid nucleation score entry was “inactive”.
As for CLLVEHNMLWWWSCCIGCWK, the figure is 0.635 ± 0.37.
Next, CLMDTGVFREYCS: -0.585 ± 0.26; CLRSCRPYSQTIINVA: 6.16 ± 0.062.
As for CMFFCYYLWMMRMVWSVTWS, the figure is -0.589 ± 0.53.
Regarding CMFGEEFGLNKNVVGSLGLY, the amyloid nucleation score entry was “inactive”.
Next, CMFLFYVKYLNVHSGGLIML: “inactive”; CMFWSHYTIRFSSWWLGGCE: -0.149 ± 0.79; CMIIKGCTVWVVRP: 9.469 ± 0.055.
As to CMLEIVLLEDFQG, the amyloid nucleation score is -0.632 ± 0.32.
Next, CMNSSDLECPMGDCVCVVLN: 2.82 ± 0.1.
As for CMQTSDEPLRHGP, the figure is -0.06 ± 0.79; as for CMQVYTVEYTGFCCATRARK, 5.09 ± 0.066; as for CMRVVDGCFYFLDWSGVTDF, -1.55 ± 1.1.
As for CMSAIFLPMIEF, the figure is -0.714 ± 0.44; as for CMSSDIYFLVFTESEIVSLC, -0.42 ± 0.76; as for CMTGNYYQP, “inactive”.
Take CNCVARYGEVKEGIHVAFDY: the amyloid nucleation score is -0.529 ± 0.76.
Next, CNFLQDNVEGVCYNRFKDCL: 0.601 ± 0.49.
Next, CNFYCPRDPQSSIVSYTMSY: -0.159 ± 1.
As for CNGFVWLFSVGYFNNRFMWF, the amyloid nucleation score result was “inactive”.
Next, CNGSRVKDFRCRFRWNGLGL: -0.889 ± 0.41; CNMFDCCK: 0.175 ± 0.42; CNNSVGVFYKGLTELLCLRS: -0.986 ± 1.1.
As for CNRVHYFFCFSCLWMFVFID, the figure is -2.07 ± 1.1; as for CNTDDWK, 0.496 ± 0.66; as for CPCSRCLVDNKVRL, -0.41 ± 0.45.
As for CPLEAYLD, the entry is “inactive”; as for CPRPTCAPHCWYFVLAMVAR, -0.4 ± 0.64; as for CPSWSSLLISPYYYSSVSHK, -0.443 ± 0.79.
For the substance CPTNIRP, the amyloid nucleation score was -1.18 ± 0.63.
Next, CPVFGSIGGLISNSWYVTLM: 5.335 ± 0.046.
On to CQAYSSIRFEVL, for which the amyloid nucleation score result is “inactive”.
As for CQFSTQMMVICSFTTLTSVL, the figure is 1.98 ± 0.13; as for CRCTSIRGLKCIRW, 0.767 ± 0.15.
As for CRHYRRYLLNLQVGWMR, the figure is 0.978 ± 0.27; as for CRIQPDFRFMCLRNCGLESR, -0.855 ± 1; as for CRKRGH, 1.33 ± 0.49.
As for CRLCWE, the figure is -0.459 ± 0.61; as for CRLEGKTSVPCDNRGLGWAR, 0.938 ± 0.47.
For CRLFQSQIYERYTSRCVYRF, the amyloid nucleation score is -1.05 ± 0.79.
As for CRMSLRYTVPYSVQPLRGSL, the figure is 0.156 ± 0.41; as for CRNQGVCDAGQSLLN, 0.897 ± 0.29; as for CRRRSPTNGGVNVRN, 0.41 ± 0.74.
Next, CRVCRNWIWGTLSSGVTSRL: -0.61 ± 0.49; CRWDFVLWRFLCSIKKDWVT: -0.386 ± 0.79.
As for CSAITEGCKGFVHDVSGVML, the figure is -0.27 ± 0.56.
CSFHVGNLTWWANVEARVVV: the amyloid nucleation score came to 0.176 ± 0.29.
As for CSFSIAFWKS, the figure is 0.714 ± 0.3.
As for CSKMLTSNRVC, the figure is -0.583 ± 1.1.
As for CSNADFDSRVFTDANMIFPK, the figure is 4.01 ± 0.098; as for CSNGLYPNTVGRLEYS, -1.05 ± 0.39.
Take CSRIHMRIARSSLF: the amyloid nucleation score was found to be 1.18 ± 0.39.
Next, CSRRNRRIGVALRFIFLDIY: -0.956 ± 0.78; CSRRYSLRL: -0.319 ± 0.54; CSSWRAYWNSGLQFLVIFGV: -0.737 ± 0.32.
As for CTIKIGWYWL, the figure is 7.512 ± 0.07; as for CTILVILSKVSYCQYPWEHV, 1.52 ± 0.14; as for CTMLLGSESEGWSLQIFVLL, 0.05 ± 0.62.
As for CTPNWRLSSFRWYVLRTFSE, the figure is 0.052 ± 0.37; as for CTSCLGKRFSCLTINAGLSW, -0.916 ± 0.56; as for CTWTYE, 5.92 ± 0.077.
For CTYHAQVFTFDHPGRSTRYS, the amyloid nucleation score is -0.274 ± 0.76.
Next, CVINKKNYDSFGFSVFTFYK: 3.19 ± 0.074; CVMGPAT: 1.02 ± 0.3.
Next, CVSFVQSFCYIHIQLNYHCR: -0.43 ± 1.1; CVVECIRSNHPSNFMMRNLG: “inactive”.
Next, CWGHS: -0.792 ± 0.79.
CWLFNTY had an amyloid nucleation score of 3.04 ± 0.14.
The substance CWLGASTSNGLPAAGPSGLH returned an amyloid nucleation score of 0.868 ± 0.55.
As to CWNDVIQKMVQYNTINFVLS, the amyloid nucleation score came to 4.88 ± 0.063.
As for CWSTQDHLNCVID, the entry is “inactive”; as for CWVRLIVGMTCYAFKGGSVV, 0.426 ± 0.43.
As for CYGYMIMSAFMVGHWEPDRM, the figure is 0.205 ± 0.77.
Regarding CYLGVKCVLGWQSWRVVYSN, the amyloid nucleation score entry was “inactive”.
CYNVGEGIVARIRGGSKGLK came in with an amyloid nucleation score of 0.619 ± 0.81.
For CYRNNWTMWVVSQRYHRNGK, the amyloid nucleation score is -0.289 ± 0.22.
As for CYRPDRPIITIDLVCVRFS, the figure is 1.9 ± 0.2; as for CYSKLNASSVCIKFLPSQHE, -0.314 ± 0.27.

Values taken from the supplement of paper PMC12042874.
